# US20260250410A1 (SICHUAN HUIYU PHARMACEUTICAL, published 2026)
# Where a chain is given by its changes, count along the chain named.
# T1: human CDCP1 on tumor cells (human, UniProt Q9H5V8 30-836)
# T1 construct: whole, on cells; cell line is named under assay or readout
# T1 sequence (looked up): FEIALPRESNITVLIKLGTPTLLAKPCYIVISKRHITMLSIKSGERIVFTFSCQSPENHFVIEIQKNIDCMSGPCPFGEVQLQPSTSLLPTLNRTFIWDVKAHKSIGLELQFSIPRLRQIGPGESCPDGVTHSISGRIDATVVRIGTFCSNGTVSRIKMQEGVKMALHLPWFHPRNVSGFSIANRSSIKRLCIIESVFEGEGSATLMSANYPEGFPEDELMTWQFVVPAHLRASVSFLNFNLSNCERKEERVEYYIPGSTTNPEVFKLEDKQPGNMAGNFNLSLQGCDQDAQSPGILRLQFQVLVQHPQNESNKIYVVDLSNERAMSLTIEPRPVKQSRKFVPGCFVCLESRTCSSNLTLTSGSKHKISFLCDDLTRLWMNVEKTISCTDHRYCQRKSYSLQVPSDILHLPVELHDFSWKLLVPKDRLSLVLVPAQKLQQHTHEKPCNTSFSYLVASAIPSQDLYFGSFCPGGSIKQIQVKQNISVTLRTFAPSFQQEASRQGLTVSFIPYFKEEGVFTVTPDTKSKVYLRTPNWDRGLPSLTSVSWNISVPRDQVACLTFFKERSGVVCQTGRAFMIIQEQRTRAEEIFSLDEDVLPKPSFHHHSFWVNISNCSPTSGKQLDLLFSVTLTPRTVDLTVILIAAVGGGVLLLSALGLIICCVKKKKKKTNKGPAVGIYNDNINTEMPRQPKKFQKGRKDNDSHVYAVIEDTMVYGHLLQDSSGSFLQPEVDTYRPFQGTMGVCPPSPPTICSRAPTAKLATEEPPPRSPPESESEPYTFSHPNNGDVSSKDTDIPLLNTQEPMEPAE
# T2: HuCDCP1-B (human, UniProt Q9H5V8 343-667)
# T2 construct: range 343-667; expressed in HEK-293T, purified by Fc/his tag; also called human CDCP1-B; membrane-proximal region of CDCP1; not shown: Fc or his tag
# T2 sequence (looked up): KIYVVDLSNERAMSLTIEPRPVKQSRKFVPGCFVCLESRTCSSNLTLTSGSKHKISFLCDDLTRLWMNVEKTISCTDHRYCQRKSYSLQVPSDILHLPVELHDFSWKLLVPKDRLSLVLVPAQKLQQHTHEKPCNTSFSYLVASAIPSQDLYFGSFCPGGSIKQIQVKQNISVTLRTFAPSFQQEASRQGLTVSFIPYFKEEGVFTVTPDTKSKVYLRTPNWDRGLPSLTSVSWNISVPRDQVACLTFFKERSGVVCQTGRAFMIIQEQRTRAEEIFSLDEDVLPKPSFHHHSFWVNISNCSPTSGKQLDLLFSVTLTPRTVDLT
# B1: 10D2 (antibody, V domains shown)
# VH: EVQLQQSGPELKKPGETVKISCKASGYTFTDYSMHWVKQAPGKGLKWMGWINTETGQPTYADDFKGRFAFSLETSASSAYLQINNLKNEDTATYFCTRTFYYDYVGDYWGQGTTVTVSS
# VL: DIVMTQSHKFMSTSVGDRVSITCKASQDVSTAVAWYRQKPGQSPKLLIYWASTRHTGVPDRLTGSGSGTDFALTINSVQAEDLALYYCQQHSSTPYTFGGGTKLEIK
# notes: murine hybridoma mAb
# B2: G10F6 (antibody, V domains shown)
# VH: EVKLVESGPGILQPSQTLSLTCSFSGFSLSTSGMGVSWVRQPSGKGLEWLAHIYWDDDKRYNPSLKGRLTISKDTPRNQVFLEITSVDTTDTATYYCARVPGNWDEDAMDYWGQGTTVTVSS
# VL: DIQMTQSPLSLPVSLGDQASISCRSSQNIVHTNGNTYLEWYLQKVGQSPKLLIYKVSNRFSGVPDRFSGSGSGTDFTLKISRVEAEDLGVYYCFQGSHVPYTFGGGTKLEIK
# notes: murine hybridoma mAb
# B3: 6A7 (antibody, V domains shown)
# VH: EVQLKESGAELVRPGASVKVSCKASGYSFTSYWMNWVKQRPGQGLEWIGMIHPSDSETKLNQKFRDRASLTVDKSSSTAYMQLSSPTSEDSAVYYCTINYESFYYAMDYWGQGTTVTVSS
# VL: DIVMTQSPASLAVSLGQRATISCRASKSVSTSGYSYMHWYQQKPGQPPKLLLYLASNLESGVPARFSGSGSGADFTLNIHPVEEEDAATYYCLHSRELPYTFGGGTKLEIK
# notes: murine hybridoma mAb
# B4: 8E5 (antibody, V domains shown)
# VH: EVQLKESGPELKKPGETVKISCKASGYTLTDFSMHWLKQAPGKGLKWMGWINTETGAPTYADDFKGRFALSLDTSANTAYLQINNLKNEDTATYFCSRGRDYDPHFDYWGQGTTVTVSS
# VL: EIVLTQSPATLSVTPGDRVSLSCRASQSISDFLHWYQQRSHESPRLLIKYASQSISGIPSRFGGSGSGSDFTLNINTVEPEDVGMYYCQSAHSFPYTFGGGTKLEIK
# notes: murine hybridoma mAb; also called 8ES
# B5: 5B8 (antibody, V domains shown)
# VH: EVQLKESGGGLVQPGGSLRISCATSGLTFTHYHMSWVRQPPGKAPEWLAIIRNKAYGYTTDYSASVRGRFTISRDDSQSILYLQMNTLRAEDSATYYCVREGGYGYDGTFAYWGQGTTVTVSS
# VL: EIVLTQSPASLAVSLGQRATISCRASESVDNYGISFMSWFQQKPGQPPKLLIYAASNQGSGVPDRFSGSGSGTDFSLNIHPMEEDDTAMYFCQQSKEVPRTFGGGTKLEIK
# notes: murine hybridoma mAb
# B6: 8C9 (antibody, V domains shown)
# VH: B5 VH with A90P
# VL: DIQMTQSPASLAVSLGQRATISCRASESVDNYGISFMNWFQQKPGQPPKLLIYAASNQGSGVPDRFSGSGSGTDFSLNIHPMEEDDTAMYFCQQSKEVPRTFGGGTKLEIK
# notes: murine hybridoma mAb
# B7: 3C11 (antibody, V domains shown)
# VH: EVQLQQSGTVLARPGASVKMSCKASGYNFISYWLHWIKQRPGQGLEWIGGIYPGNTDTTYNQKFKGKAKVTAVTSATTAYMELSSLTNEDSAVYYCIRYDYDRGMDYWGQGTTVTVSS
# VL: DIQMTQSPSSFSVSLGDRVTITCRASEDIYYRLAWYQQKPGNAPRLLISGATALETGVPSRFSGSGSGKDYTLSITSLQTEDVATYYCQHYWNIPWTFGGGTKLEIK
# notes: murine hybridoma mAb
# B8: 3B12H5 (antibody, V domains shown)
# VH: EVQLQQSGTVLARPGASVKMSCKASGYSFTIYWVHWVKQRPGQGLEWIGAVYPGNDDTSYNQNFKGKAKLTAVTSATTAYMELSSLTIDDSAVYYCTRHTYDEVFDYWGQGTTVTVSS
# VL: B7 VL with Q3V, F11L, R24K, A51G, A53N, T56A, V58I, T85I, I94T
# notes: murine hybridoma mAb; also called 3B12HS
# B9: 12E6 (antibody, V domains shown)
# VH: EVQLKESGPGILQPSQTLSLTCSFSGFSLSTSGMGVGWIRQPSGKGLEWLAHIWWDDVKLYNPALKSRLTISKETSNNQVFLKIASVDAADTATYYCARIDHGYGSNYWDFDVWGAGTTVTVSS
# VL: DIVMTQAAPSVPVTPGGSVSISCRSTKSLLHSDGKTYLYWFLQRPGQSPQLLIYRMSNLASGVPDRFSGSGSGTAFTLRISRVEAEDVGVYYCMQHLEYPFTFGSGTKLEIK
# notes: murine hybridoma mAb
# How the values were obtained:
# [1] = target: T1, human CDCP1 on tumor cells; assay: flow cytometry, MDA-MB-231 cells
# Procedure: Flow cytometry was used to detect the binding capacity of antibody to tumor cells. […] 2.0×10⁴ tumor cells were added per well, respectively, and 50 μL (PBS+2% FBS) were added, and after blocking at room temperature with an Fe blocker (Human TruStain FcX™, Biolegend, 422302) for 10 mins, an anti-CDCP1 murine monoclonal antibody at a final concentration of 200 nM was added. The obtained mixture was subjected to a 3-fold serial dilution across 8 concentration points, and incubated at 4° C. for 30 mins, and then incubated with a secondary antibody (PE anti-human IgG Fc Antibody, Biolegend, 410708), detection was performed using a flow cytometer.
# HuCDCP1-B = target: T2, HuCDCP1-B; assay: SPR (Caterra or Biacore), antigen immobilized
EC50 [1] [pM],EC50 (HuCDCP1-B) [pM],Binder
490,–,B1
190,–,B2
1720,–,B3
670,–,B4
930,–,B5
470,–,B6
270,3780,B7
470,–,B8
85400,1620,B9
